Our source for the percent (w/w) co-partitioned into condensates with EWS^LCD values is PMC12451834.

For this assay, the target named is RNA-binding protein EWS low-complexity domain (EWS^LCD, residues 1-264) (UniProt Q01844). The assay can be described thus: condensate partitioning assay.

Regarding “EWS^RRM-RGG2 (central RNA-binding region of EWS: RNA-recognition motif and RGG2 domain) (domain or fragment)”, the percent (w/w) co-partitioned into condensates with EWS^LCD came to 53 % w/w.
